The target of test [1] is Large subunit-rSCFV5 fusion protein. The test can be described thus: cell-based or functional assay.
For test [2] the target is unchanged. The test can be described thus: cell-based or functional assay. This is another data set of the same source.
The target is the same in test [3]. The test is described as follows: cell-based or functional assay. The source holds these as a separate data set.
Test [4] shares this target. The test is described as follows: cell-based or functional assay. This is another data set of the same source.
The target is the same in test [5]. The test can be described thus: cell-based or functional assay. This is another data set of the same source.
Test [6] concerns the target T1, Recombinant human IL6 protein with C-terminal six-histidine tag (human, UniProt P05231 29-212).
T1 construct: also called human interleukin 6
The test can be described thus: homogeneous split-luciferase sandwich with RB073-449-1, signal rises with IL6.

In test [7] the target is T1, Recombinant human IL6 protein with …. The test can be described thus: homogeneous split-luciferase sandwich with OL-453, signal rises with IL6.

Changes are numbered by the printed parent chain. Like-named read-outs stand apart in the source and are kept apart here.

B1: rSCFV18-small subunit P114 fusion protein (other)
chain: AHHHHHHGSGDIVLTQTPSPVSAAVGGTVSINCQSSQSVYKNNRLSWYQQKPGQPPKFLIYDTSKLASGVPSRFSGSGSGTQFTLTISDLECDDAATYYCAGGYSNNIGAFGGGTEVVVKSSGGGGSGGGGGGSSRSSQSLEESRGRLVTPGGSLTLTCSVSGFSLSIYNMGWVRQAPGEGLEWIGVIGSSGNTYYASWAKGRFTISRNTNDNTVDLKITSPTTGDTATYFCARGFSSFDIWGPGTLVTVSSGGGGSGGGGSGGGGSVTGYRLFEEIL
Take B1: the “Signal-to-noise ratio at 1000 pg/ml” value in test [1] stood at 3.8; in test [2], 3.8; in test [5], 1.44. Besides, the Signal-to-noise ratio came out at 12.2 in test [3] and 1.9 in test [4].

B2: rSCFV18-RB073 fusion protein (other)
chain: B1 chain with T269E, E275D, E276R, I277K, L278S
On to B2, for which the “Signal-to-noise ratio at 1000 pg/ml” value came out at 14.5 in test [2] and 38.9 in test [5]. Also, the Signal-to-noise ratio in test [3] was 48.

B3: fusion protein OL-453 of the large subunit with human IL6 SCFV antibody 453 (other)
chain: VFTLEDFVGDWEQTAAYNLDQVLEQGGVSSLLQNLAVSVTPIQRIVRSGENALKIDIHVIIPYEGLSADQMAQIEEVFKVVYPVDDHHFKVILPYGTLVIDGVTPNMLNYFGRPYEGIAVFDGKKITVTGTLWNGNKIIDERLITPDGSMLFRVTINSGSSGGGGSGGGGSGGQAVLTQPSSVSKSLGQSVSITCSGSNIGSSAVGWYQQLPGSGLKTIIYSTSSRPSGVPDRFSGSKSGNTATLTISSLQAEDEADYYCATGDRGNYGGVFGSGTRLTVLSSGGGGSGGGGGGSSRSSQVQLQESGPSLVKPSQTLSLTCTVSGFSLTSYGVGWVRQAPGKTPEWLGGIDRDGDMSYNPALKSRLSITRDTSKSQVSLSLRSVATEDTAVYYCARSSYDSHYYGDYYDVDVWGRGLLVTVSSGQAGHHHHHH
notes: also called large subunit fusion protein OL-453
For the molecule B3, the binding result in test [6] is “binds”.

B4: fusion protein RB073-449-1 of the small subunit peptide RB073 with human IL6 SCFV antibody 449-1 (other)
chain: VEGYRLFDRKSGGGGSGGGGSGGGGSQSALTQPSSVSKSLGQSVSITCSGSSSNVGYGNYVSWYQQVPGSAPKFLIYGATSRASGVPARFSGSRSGNTATLSISSLQAEDEADYYCASYDSSSYGVFGSGTTLTVLSSGGGGSGGGGGGSSRSSQVRLQESGPSLVKPSQTLSLTCTVSGFSLTNYPVGWVRQAPGKALEWLGGISSGGGTAYNPALKSRLSFTRDTSKNQVSLSLSSVTSEDTAVYYCTRGNGDYVLRYGADVWGRGLLVTVSSGSGHHHHHH
notes: also called small subunit fusion protein RB073-449-1
For B4, in test [7], the binding result is “binds”.

Values taken from patent publication EP4700040A1 (Shenzhen Loggene Life Science & Technology Co., Ltd., dated 2024).
